T1: EBOV GP on pseudotyped lentiviral particles (Ebola virus (EBOV), UniProt Q05320 33-676)
T1 sequence: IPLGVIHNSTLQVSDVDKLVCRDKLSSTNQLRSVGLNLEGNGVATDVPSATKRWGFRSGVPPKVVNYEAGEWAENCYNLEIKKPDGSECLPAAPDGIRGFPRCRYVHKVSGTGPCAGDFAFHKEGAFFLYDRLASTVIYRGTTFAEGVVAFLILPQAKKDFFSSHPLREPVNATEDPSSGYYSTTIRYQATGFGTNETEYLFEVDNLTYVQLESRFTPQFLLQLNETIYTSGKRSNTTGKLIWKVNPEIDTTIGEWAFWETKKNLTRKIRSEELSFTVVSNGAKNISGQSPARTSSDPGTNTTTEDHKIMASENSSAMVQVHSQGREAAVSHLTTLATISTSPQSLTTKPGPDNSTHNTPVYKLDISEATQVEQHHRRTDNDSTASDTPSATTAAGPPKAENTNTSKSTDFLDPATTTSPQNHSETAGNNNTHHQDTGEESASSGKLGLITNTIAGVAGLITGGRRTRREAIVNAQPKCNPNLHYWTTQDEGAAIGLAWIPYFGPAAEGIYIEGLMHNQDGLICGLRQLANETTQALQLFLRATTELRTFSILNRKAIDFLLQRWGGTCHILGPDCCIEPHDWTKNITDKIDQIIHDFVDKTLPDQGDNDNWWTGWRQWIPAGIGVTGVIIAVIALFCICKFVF


Legend:
[1] = biological target: T1, EBOV GP on pseudotyped lentiviral …; test: cell-based or functional assay
[2] = biological target: T1, EBOV GP on pseudotyped lentiviral …; test: cell-based or functional assay; remark: listed apart in the source

| Binder | IC50, neutralization activity in a pseudotyped virus entry assay [1] | % EBOV Neut. (10 µg/mL) [2] |
| --- | --- | --- |
| EboV.YD.02 IgG (antibody, V domains shown) VH: QVQLVQSGAEVKKPGTSVKISCKASGYSFTSKYMHWVRQAPGQGLEWMGKINPSGGRRDYAQKFQGRVTMTRDTSTSTVYMELSSLRSGDTAVYYCARDMHGVLSWYHALDYWGQGTLVTVSS VL: DIRVTQSPSSLSTSVGDRVTITCRASQDIGRYLNWYQQKPGKAPKLLIYGASSLQSGVPSRFSGSGSGTDFTLTISSLQPEDFATYYCQQGYRIPITFGQGTRLEIK | 1.6 µg/mL | 70.8% |
| EboV.YD.03 IgG (antibody, V domains shown) VH: QVQLQESGPGLVKPSETLSLTCTVSGDSLSSSYWSWIRQSAGKGLEYIGRTYVSGNTKYNPSLKSRVTMSVDTSKNQFSLRLTSVTAADTAVYYCARIRVLPAAMLRGDYWYFDLWGRGTLVTVSS VL: SYELTQLPSVSVSPGQTASITCSGDKVENKYVCWYQQKSGQSPVLVIYEDSKRPSGIPERFSGSNSGNTATLTISGTQTMDEADYFCQAWDSSIGVFGTGTKLTVL | 1.1 µg/mL | 97.3% |
| EboV.YD.04 IgG (antibody, V domains shown) VH: QVQLVESGGGLVKPGGSLRLSCAASGFMFSNAWMNWVRQAPGKGLEWVGRIKSRSDGGTTDYAAPVKGRFTFSREDSKNMLYLQMNSLKREDTAVYYCTTRVSIFRGPIEDVWGQGTTVTVSS VL: QPVLTQPPSVSGAPGQRVTISCAGSSSNIGAGYDVYWYQQLPGTAPKLLIYGNNNRPSGVPDRFSGSKSGTSASLAITGLQAEDEAEYYCQSYDSSLRDSYVFGSGTKVTVL | 0.5 µg/mL | 98.8% |
| EboV.YD.01 IgG (antibody, V domains shown) VH: QVRLVQSGGGLVKPGGSLRLSCAASGFTFSTFAMHWVRQAPGKGLEWVSSISRSSGSINYADSVKGRFTISRDNAKNSLFLQMNSLRADDTAVYYCARENTIPFGGGVVLERASHFDYWGQGTTVTVSS VL: DIRVTQSPSSLSASVGDRVTIICRASQSSSTFLNWYQQKPGKAPNLLIYAASSLQSGVPSRFSGSGSGTDFTLTISSLQPEDFATYYCQQSYSAPYTFGQGTKVDIK | 7.1 µg/mL | 55.1% |

From patent US20220089694A1 (US Dept. of Health and Human Services, published 2022)
